Biological target: tubulin (bovine, Cytoskeleton) (bovine) (UniProt Q6B856)

reduction of the extent of tubulin polymerization at 0.5, 1 and 10 µM Capzb2 (8%, 16%, 35%; none at 0.1 µM): 35%
Substance: GST-tagged full-length Capzb2 (1–271) (from UniProt P47757-2 1-272) (natural protein)

Source: paper PMC2748697
